Experimental data reported in the Human Domainome abundance scans (Beltran et al. 2025).
± gives the uncertainty stated by the source.

B1: Proto-oncogene vav, residues 782 to 842; numbered along this chain, P15498 (parent)
chain: KYFGTAKARYDFCARDRSELSLKEGDIIKILNKKGQQGWWRGEIYGRVGWFPANYVEEDYS

Variants of: B1
Assay: abundance fitness (aPCA) (normalised: wild type 0, dead -1); higher = more abundant; growth selection in yeast, the domain comes from the species named
Conditions: Homo sapiens
For KTFGTAKARYDFCARDRSELSLKEGDIIKILNKKGQQGWWRGEIYGRVGWFPANYVEEDYS [Y2T], the abundance fitness was -0.138 ± 0.093.
With KPFGTAKARYDFCARDRSELSLKEGDIIKILNKKGQQGWWRGEIYGRVGWFPANYVEEDYS [Y2P] the abundance fitness was -0.212 ± 0.1.
KVFGTAKARYDFCARDRSELSLKEGDIIKILNKKGQQGWWRGEIYGRVGWFPANYVEEDYS [Y2V] showed an abundance fitness of -0.247 ± 0.087.
Work on KHFGTAKARYDFCARDRSELSLKEGDIIKILNKKGQQGWWRGEIYGRVGWFPANYVEEDYS [Y2H] yielded an abundance fitness of -0.138 ± 0.1.
For KNFGTAKARYDFCARDRSELSLKEGDIIKILNKKGQQGWWRGEIYGRVGWFPANYVEEDYS [Y2N], the abundance fitness was 0.228 ± 0.19.
KWFGTAKARYDFCARDRSELSLKEGDIIKILNKKGQQGWWRGEIYGRVGWFPANYVEEDYS [Y2W] showed an abundance fitness of -0.36 ± 0.12.
With KYRGTAKARYDFCARDRSELSLKEGDIIKILNKKGQQGWWRGEIYGRVGWFPANYVEEDYS [F3R] the abundance fitness was -0.145 ± 0.059.
Variant KYLGTAKARYDFCARDRSELSLKEGDIIKILNKKGQQGWWRGEIYGRVGWFPANYVEEDYS [F3L] has an abundance fitness of 0.027 ± 0.057.
Work on KYSGTAKARYDFCARDRSELSLKEGDIIKILNKKGQQGWWRGEIYGRVGWFPANYVEEDYS [F3S] yielded an abundance fitness of -0.167 ± 0.057.
Work on KYIGTAKARYDFCARDRSELSLKEGDIIKILNKKGQQGWWRGEIYGRVGWFPANYVEEDYS [F3I] yielded an abundance fitness of 0.058 ± 0.094.
For KYTGTAKARYDFCARDRSELSLKEGDIIKILNKKGQQGWWRGEIYGRVGWFPANYVEEDYS [F3T], the abundance fitness was -0.063 ± 0.087.
With KYDGTAKARYDFCARDRSELSLKEGDIIKILNKKGQQGWWRGEIYGRVGWFPANYVEEDYS [F3D] the abundance fitness was -0.274 ± 0.13.
KYVGTAKARYDFCARDRSELSLKEGDIIKILNKKGQQGWWRGEIYGRVGWFPANYVEEDYS [F3V] showed an abundance fitness of -0.029 ± 0.068.
Variant KYHGTAKARYDFCARDRSELSLKEGDIIKILNKKGQQGWWRGEIYGRVGWFPANYVEEDYS [F3H] has an abundance fitness of -0.396 ± 0.13.
With KYWGTAKARYDFCARDRSELSLKEGDIIKILNKKGQQGWWRGEIYGRVGWFPANYVEEDYS [F3W] the abundance fitness was -0.166 ± 0.083.
Variant KYCGTAKARYDFCARDRSELSLKEGDIIKILNKKGQQGWWRGEIYGRVGWFPANYVEEDYS [F3C] has an abundance fitness of -0.105 ± 0.086.
KYNGTAKARYDFCARDRSELSLKEGDIIKILNKKGQQGWWRGEIYGRVGWFPANYVEEDYS [F3N] gave an abundance fitness of -0.173 ± 0.097.
KYGGTAKARYDFCARDRSELSLKEGDIIKILNKKGQQGWWRGEIYGRVGWFPANYVEEDYS [F3G] showed an abundance fitness of -0.268 ± 0.09.
For KYMGTAKARYDFCARDRSELSLKEGDIIKILNKKGQQGWWRGEIYGRVGWFPANYVEEDYS [F3M], the abundance fitness was -0.054 ± 0.087.
KYPGTAKARYDFCARDRSELSLKEGDIIKILNKKGQQGWWRGEIYGRVGWFPANYVEEDYS [F3P] gave an abundance fitness of -0.232 ± 0.09.
KYKGTAKARYDFCARDRSELSLKEGDIIKILNKKGQQGWWRGEIYGRVGWFPANYVEEDYS [F3K] gave an abundance fitness of -0.103 ± 0.12.
KYEGTAKARYDFCARDRSELSLKEGDIIKILNKKGQQGWWRGEIYGRVGWFPANYVEEDYS [F3E] gave an abundance fitness of -0.192 ± 0.17.
With KYYGTAKARYDFCARDRSELSLKEGDIIKILNKKGQQGWWRGEIYGRVGWFPANYVEEDYS [F3Y] the abundance fitness was -0.009 ± 0.14.
Work on KYFDTAKARYDFCARDRSELSLKEGDIIKILNKKGQQGWWRGEIYGRVGWFPANYVEEDYS [G4D] yielded an abundance fitness of -0.083 ± 0.075.
KYFCTAKARYDFCARDRSELSLKEGDIIKILNKKGQQGWWRGEIYGRVGWFPANYVEEDYS [G4C] showed an abundance fitness of -0.274 ± 0.14.
Work on KYFATAKARYDFCARDRSELSLKEGDIIKILNKKGQQGWWRGEIYGRVGWFPANYVEEDYS [G4A] yielded an abundance fitness of -0.163 ± 0.081.
Work on NYFGTAKARYDFCARDRSELSLKEGDIIKILNKKGQQGWWRGEIYGRVGWFPANYVEEDYS [K1N] yielded an abundance fitness of 0.099 ± 0.13.
Variant TYFGTAKARYDFCARDRSELSLKEGDIIKILNKKGQQGWWRGEIYGRVGWFPANYVEEDYS [K1T] has an abundance fitness of -0.27 ± 0.12.
SYFGTAKARYDFCARDRSELSLKEGDIIKILNKKGQQGWWRGEIYGRVGWFPANYVEEDYS [K1S] showed an abundance fitness of -0.198 ± 0.13.
In the case of RYFGTAKARYDFCARDRSELSLKEGDIIKILNKKGQQGWWRGEIYGRVGWFPANYVEEDYS [K1R], the abundance fitness is reported as -0.643 ± 0.2.
Variant DYFGTAKARYDFCARDRSELSLKEGDIIKILNKKGQQGWWRGEIYGRVGWFPANYVEEDYS [K1D] has an abundance fitness of -0.437 ± 0.27.
With EYFGTAKARYDFCARDRSELSLKEGDIIKILNKKGQQGWWRGEIYGRVGWFPANYVEEDYS [K1E] the abundance fitness was -0.16 ± 0.12.
With HYFGTAKARYDFCARDRSELSLKEGDIIKILNKKGQQGWWRGEIYGRVGWFPANYVEEDYS [K1H] the abundance fitness was -0.109 ± 0.45.
QYFGTAKARYDFCARDRSELSLKEGDIIKILNKKGQQGWWRGEIYGRVGWFPANYVEEDYS [K1Q] showed an abundance fitness of 0.088 ± 0.27.
In the case of AYFGTAKARYDFCARDRSELSLKEGDIIKILNKKGQQGWWRGEIYGRVGWFPANYVEEDYS [K1A], the abundance fitness is reported as -0.456 ± 0.14.
Work on LYFGTAKARYDFCARDRSELSLKEGDIIKILNKKGQQGWWRGEIYGRVGWFPANYVEEDYS [K1L] yielded an abundance fitness of -0.21 ± 0.1.
FYFGTAKARYDFCARDRSELSLKEGDIIKILNKKGQQGWWRGEIYGRVGWFPANYVEEDYS [K1F] showed an abundance fitness of -0.159 ± 0.36.
Work on PYFGTAKARYDFCARDRSELSLKEGDIIKILNKKGQQGWWRGEIYGRVGWFPANYVEEDYS [K1P] yielded an abundance fitness of -0.822 ± 0.32.
For VYFGTAKARYDFCARDRSELSLKEGDIIKILNKKGQQGWWRGEIYGRVGWFPANYVEEDYS [K1V], the abundance fitness was -0.241 ± 0.12.
For YYFGTAKARYDFCARDRSELSLKEGDIIKILNKKGQQGWWRGEIYGRVGWFPANYVEEDYS [K1Y], the abundance fitness was -0.261 ± 0.25.
WYFGTAKARYDFCARDRSELSLKEGDIIKILNKKGQQGWWRGEIYGRVGWFPANYVEEDYS [K1W] showed an abundance fitness of -0.474 ± 0.12.
Work on GYFGTAKARYDFCARDRSELSLKEGDIIKILNKKGQQGWWRGEIYGRVGWFPANYVEEDYS [K1G] yielded an abundance fitness of -0.227 ± 0.095.
